The values below come from US20070212365A1.

Assay [1] deals with synthetic peptide … (antigen from mpf00920 polypeptide). The experiment in a line: ELISA on the antigen; pre-immune serum at 1000-fold dilution.
The target is the same in assay [2]. The experiment in a line: ELISA on the antigen; pre-immune serum at 2000-fold dilution. (In general: ELISA stands for enzyme-linked immunosorbent assay.)
Assay [3] has the same target. The assay can be described thus: ELISA on the antigen; pre-immune serum at 4000-fold dilution.
For assay [4] the target is unchanged. The experiment in a line: ELISA on the antigen; pre-immune serum at 8000-fold dilution.
Assay [5] shares this target. The experiment in a line: ELISA on the antigen; pre-immune serum at 16000-fold dilution.

For the substance “control serum (rabbit serum without immunization)”, the absorbance (490 nm) (absorbance (490 nm)) in assay [1] worked out at 0.171; in assay [2] it was 0.101; in assay [3], 0.089; in assay [4], 0.084; in assay [5], 0.076.
